Target: cBid 126C-DAC (caspase-8 cleaved Bid, single cysteine 126C, labelled with DAC) (UniProt P70444)
Assay: FRET or BRET

Kd: 0.033 µM
Substance: Bax 126C-NBD S184E (phosphomimetic Bax, single cysteine 126C, labelled with NBD) (from UniProt Q07812 1-192) (natural protein)
